Assay results published in the supplement of paper PMC10567573.

B1: C1orf137 (parent)
chain: RQHHHQSSFPGSLPQETNLTLKVC
B2: SEC22B (parent)
chain: AKQLFRKLNEQSPTRCTLEAGAMT

Variants of: B1
Experiment: protein stability index of a GFP-peptide fusion (GPS, HEK-293T) (PSI 1-6); higher = more stable
Conditions: c terminus: a fixed tail appended
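Also: lentivirally expressed fusions sorted by FACS into six bins by GFP to DsRed ratio, PSI derived from sequencing read proportions per bin multiplied by bin number.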

Protein stability index: each site, then its substitutions
S8: Q 2.9 | R 2.57 | W 2 | P 2.71 | Y 2.02 | V 2.78 | N 3.08 | M 2.68 | T 2.71
T20: I 2.13 | M 2.63 | S 3.29 | C 2.8 | H 2.48 | L 2.32 | V 2.42 | R 3.36 | E 3.61 | D 4.1 | K 2.64 | Q 3.83 | W 2.18 | Y 1.75 | N 3.16 | F 2.09 | G 3.23 | P 3.62 | A 3
N18: G 3.65 | E 2.77 | F 2.55 | W 1.06 | R 2.29 | M 2.51 | K 2.89 | P 3.17 | I 2 | C 1.96 | Y 2.08 | H 1.84 | S 2.65 | D 3.83 | A 2.76 | T 2 | L 2.2 | Q 3.66 | V 2.46
Q15: G 2.19 | R 2.54 | F 1.71 | I 2.53 | K 2.46 | T 3.34 | M 2.29 | N 2.47 | S 3.36 | A 2.03 | L 2.19 | H 2.51 | P 3.05 | W 2.29 | D 3.26 | V 2.6 | Y 2.28 | E 3.65 | C 2.56
C24: H 3.37 | T 3.37 | P 3.51 | S 3.41 | V 2.29 | M 2.44 | W 2.9 | G 3.75 | L 3.74 | K 4.11 | E 4.19 | A 3.64 | F 1.9 | D 4.36 | N 3.7 | R 4.68 | Q 3.37 | Y 2.22 | I 1.9
F9: Y 3.41 | N 3.88 | A 3.97 | W 3.27 | D 4.08 | G 4.03 | H 3.64 | V 3.46 | R 3.7 | T 3.42 | P 3.38 | L 3.53 | I 3.3 | M 3.18 | K 4.33 | S 3.16 | C 3.16
V23: W 2.86 | N 3.34 | P 3.79 | L 3.03 | Y 2.73 | S 3.73 | D 4.72 | E 4.27 | A 3.78 | I 2.46 | Q 4.5 | F 2.5 | M 3.33 | R 3.83 | G 4.43 | C 3.41 | H 4.2 | T 3.76 | K 2.97
T17: N 3.15 | Q 3.24 | C 2.46 | R 3.28 | D 3.89 | A 2.87 | P 2.98 | H 2.39 | E 3.95 | I 1.17 | W 1.41 | L 1.57 | F 2.49 | Y 2.09 | S 3.02 | M 2.44 | K 3.54 | G 3.28 | V 2.17
G11: K 3.79 | W 2.24 | Y 1.95 | A 2.21 | S 2.9 | L 2.72 | D 2.25 | T 2.66 | V 2.98 | N 3.01 | P 2.53 | R 2.44 | F 2.28 | C 2.61 | H 2.98 | E 4.03 | I 2.85 | M 3.24 | Q 3.07
L13: R 2.97 | D 4 | I 3.2 | M 3.29 | E 3.23 | Q 2.89 | W 3.13 | F 2.78 | N 3.71 | P 3.42 | H 3.21 | T 3.51 | Y 2.66 | A 2.72 | V 3.65 | S 3.57 | K 3.16 | G 2.98 | C 2.79
P10: N 2.69 | V 2.65 | S 3.46 | H 2.77 | R 3.75 | F 2.27 | T 3.25 | D 2.99 | Q 3.06 | K 3.44 | A 3.24 | E 2.6 | L 2.25 | Y 2.4 | I 2.56 | W 1.99 | C 2.38 | M 2.19
L19: C 3.32 | N 3.49 | W 4.19 | H 4.14 | Q 3.52 | S 3.55 | F 2.47 | Y 2.95 | T 3.96 | E 4.34 | P 3.31 | K 3.99 | A 4.07 | D 4.63 | G 3.98 | M 3.16 | I 3.39
K22: M 2.28 | R 2.28 | Q 2.92 | P 3.53 | H 2.75 | F 2.14 | A 2.57 | L 1.94 | G 3.42 | Y 2.28 | C 1.75 | D 3.5 | E 3.44 | S 3.34 | T 2.43 | N 2.92 | I 2.49
L21: S 4.02 | K 3.79 | H 3.76 | N 4.32 | I 2.41 | R 3.95 | M 3.79 | E 4.5 | Y 3.96 | T 4.54 | V 3.23 | D 4.43 | Q 3.95 | A 4 | F 2.88 | G 4.36 | W 3.08 | C 3.97
P14: W 1.62 | M 2.02 | E 3.17 | I 2.24 | N 2.54 | C 2.85 | Q 3.44 | R 2.4 | F 2 | G 3.18 | Y 2.11 | D 3.55 | S 2.72 | K 3.13 | L 2.29 | H 2.37 | A 3.15 | T 2.71 | V 2.55
E16: Y 1.72 | Q 2.57 | P 2.99 | L 1.7 | I 1.75 | F 2.28 | G 2.39 | H 2.87 | N 2.8 | K 2.57 | M 2.48 | S 2.63 | A 2.33 | W 1.55 | T 2.69 | D 3.63 | R 2.34 | C 1.47 | V 1.57
S12: A 3.19 | M 2.73 | C 2.37 | Y 2.27 | E 3.46 | K 2.98 | G 2.96 | I 2.41 | N 2.99 | L 2.66 | H 2.38 | T 2.99 | D 3.19 | P 2.82 | R 3.17 | F 2.41 | W 2.44 | V 3.38 | Q 2.55

Variants of: B2
Experiment: as above
Conditions: c terminus: a fixed tail appended

Protein stability index: each site, then its substitutions
K2: M 1.8 | N 2.72 | I 1.43 | E 2.92 | G 2.77 | H 1.94 | D 2.42 | F 1.72 | A 2.13 | L 2.1 | C 1.7
A1: M 1.6 | T 2.3 | G 2.26 | N 2.22 | S 2.46 | I 1.5 | F 2.18 | D 2.98 | R 2.23 | H 2.23 | Q 2.44 | Y 1.89 | C 2.09 | P 2.52 | L 2.07 | E 3.12 | K 2.77 | V 2.16
